Reference: the supplement of paper PMC10065799, “High-throughput profiling of sequence recognition by tyrosine kinases and SH2 domains using bacterial peptide display” (eLife, 2023)

What was measured:
Grb2 SH2 = Grb2 SH2 (UniProt P62993); assay: SH2 binding enrichment of the phosphorylated peptide, bacterial display (enrichment ratio); higher = better substrate or ligand; peptides without Tyr show the background
SHP2-C SH2 = assay: as above
c-Src SH2 = assay: as above
MERTK = MERTK (UniProt Q12866); assay: phosphorylation enrichment, bacterial display (enrichment ratio); higher = better substrate or ligand; peptides without Tyr show the background
Sequence of MERTK (Q12866 whole entry, looked up): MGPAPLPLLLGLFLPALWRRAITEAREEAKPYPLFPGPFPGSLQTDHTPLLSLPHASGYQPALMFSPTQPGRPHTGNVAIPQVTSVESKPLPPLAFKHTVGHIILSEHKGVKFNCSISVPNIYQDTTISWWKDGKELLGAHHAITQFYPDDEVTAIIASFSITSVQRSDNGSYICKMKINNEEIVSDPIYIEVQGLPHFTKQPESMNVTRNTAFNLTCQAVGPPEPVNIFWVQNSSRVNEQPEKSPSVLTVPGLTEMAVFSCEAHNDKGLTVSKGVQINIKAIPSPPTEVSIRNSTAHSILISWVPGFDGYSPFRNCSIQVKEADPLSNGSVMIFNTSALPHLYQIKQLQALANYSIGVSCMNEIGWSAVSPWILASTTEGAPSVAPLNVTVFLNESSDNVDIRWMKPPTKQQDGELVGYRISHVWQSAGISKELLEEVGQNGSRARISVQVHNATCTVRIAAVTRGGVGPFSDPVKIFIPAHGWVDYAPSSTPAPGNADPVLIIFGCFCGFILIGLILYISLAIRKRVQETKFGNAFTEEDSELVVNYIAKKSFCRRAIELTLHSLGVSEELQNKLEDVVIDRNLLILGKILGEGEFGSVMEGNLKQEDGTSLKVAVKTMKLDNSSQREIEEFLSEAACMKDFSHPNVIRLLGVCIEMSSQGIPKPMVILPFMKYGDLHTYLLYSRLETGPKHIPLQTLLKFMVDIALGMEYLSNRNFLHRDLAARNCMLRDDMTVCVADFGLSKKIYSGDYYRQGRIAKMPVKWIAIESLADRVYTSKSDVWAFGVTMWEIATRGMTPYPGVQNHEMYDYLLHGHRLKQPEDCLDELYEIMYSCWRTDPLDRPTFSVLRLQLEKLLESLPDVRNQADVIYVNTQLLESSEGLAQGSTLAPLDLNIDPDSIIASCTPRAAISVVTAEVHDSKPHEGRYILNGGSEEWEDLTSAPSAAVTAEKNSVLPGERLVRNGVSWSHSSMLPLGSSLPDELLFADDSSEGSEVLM

c-Abl (mouse) = assay: as above
AncSZ = assay: as above
Fes = Fes (UniProt P07332); assay: as above
Fyn = Fyn (UniProt P06241); assay: as above
Sequence of Fyn (P06241 whole entry, looked up): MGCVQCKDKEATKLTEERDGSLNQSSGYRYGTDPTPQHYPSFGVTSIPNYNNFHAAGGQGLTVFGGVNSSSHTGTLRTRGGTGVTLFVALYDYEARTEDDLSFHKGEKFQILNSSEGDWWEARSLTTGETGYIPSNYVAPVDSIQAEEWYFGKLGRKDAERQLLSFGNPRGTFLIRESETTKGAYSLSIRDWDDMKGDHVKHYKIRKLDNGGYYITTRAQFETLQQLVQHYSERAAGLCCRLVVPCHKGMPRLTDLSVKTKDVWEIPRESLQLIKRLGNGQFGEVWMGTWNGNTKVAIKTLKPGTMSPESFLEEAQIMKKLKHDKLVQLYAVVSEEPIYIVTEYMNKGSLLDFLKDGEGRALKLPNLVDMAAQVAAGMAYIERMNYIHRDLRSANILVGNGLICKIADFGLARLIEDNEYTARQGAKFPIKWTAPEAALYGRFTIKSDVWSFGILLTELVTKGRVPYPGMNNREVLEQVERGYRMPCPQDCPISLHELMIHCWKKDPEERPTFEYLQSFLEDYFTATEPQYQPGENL

EPHB2 = EPHB2 (UniProt P29323); assay: as above
Sequence of EPHB2 (P29323 whole entry, looked up): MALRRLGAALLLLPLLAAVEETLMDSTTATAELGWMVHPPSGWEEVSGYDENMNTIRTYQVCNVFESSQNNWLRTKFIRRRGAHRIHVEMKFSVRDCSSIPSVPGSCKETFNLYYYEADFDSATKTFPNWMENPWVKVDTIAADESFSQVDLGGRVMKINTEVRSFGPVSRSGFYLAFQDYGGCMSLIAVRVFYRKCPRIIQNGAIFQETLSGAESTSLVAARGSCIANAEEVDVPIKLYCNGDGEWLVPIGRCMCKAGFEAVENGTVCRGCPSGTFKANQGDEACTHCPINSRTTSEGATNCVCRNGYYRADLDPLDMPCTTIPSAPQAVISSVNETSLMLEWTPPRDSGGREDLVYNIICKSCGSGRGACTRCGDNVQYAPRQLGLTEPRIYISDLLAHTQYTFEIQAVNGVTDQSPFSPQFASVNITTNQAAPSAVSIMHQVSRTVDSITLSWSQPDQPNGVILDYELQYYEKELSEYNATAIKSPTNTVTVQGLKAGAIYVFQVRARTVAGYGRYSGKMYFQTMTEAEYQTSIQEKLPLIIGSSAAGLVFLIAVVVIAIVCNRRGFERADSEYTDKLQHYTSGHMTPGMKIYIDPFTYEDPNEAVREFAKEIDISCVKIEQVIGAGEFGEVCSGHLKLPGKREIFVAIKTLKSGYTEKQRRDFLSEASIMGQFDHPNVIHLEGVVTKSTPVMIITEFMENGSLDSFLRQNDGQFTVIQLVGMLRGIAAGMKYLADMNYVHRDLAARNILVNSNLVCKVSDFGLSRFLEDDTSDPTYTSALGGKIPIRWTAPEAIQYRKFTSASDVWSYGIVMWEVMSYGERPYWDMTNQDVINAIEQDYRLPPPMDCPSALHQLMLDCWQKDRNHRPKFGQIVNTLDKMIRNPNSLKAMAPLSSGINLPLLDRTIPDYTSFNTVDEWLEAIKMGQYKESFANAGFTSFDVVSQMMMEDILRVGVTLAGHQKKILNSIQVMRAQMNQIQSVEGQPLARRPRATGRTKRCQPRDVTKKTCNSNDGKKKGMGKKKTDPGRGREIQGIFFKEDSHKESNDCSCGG

Hck = Hck (UniProt P08631); assay: as above
Sequence of Hck (P08631 whole entry, looked up): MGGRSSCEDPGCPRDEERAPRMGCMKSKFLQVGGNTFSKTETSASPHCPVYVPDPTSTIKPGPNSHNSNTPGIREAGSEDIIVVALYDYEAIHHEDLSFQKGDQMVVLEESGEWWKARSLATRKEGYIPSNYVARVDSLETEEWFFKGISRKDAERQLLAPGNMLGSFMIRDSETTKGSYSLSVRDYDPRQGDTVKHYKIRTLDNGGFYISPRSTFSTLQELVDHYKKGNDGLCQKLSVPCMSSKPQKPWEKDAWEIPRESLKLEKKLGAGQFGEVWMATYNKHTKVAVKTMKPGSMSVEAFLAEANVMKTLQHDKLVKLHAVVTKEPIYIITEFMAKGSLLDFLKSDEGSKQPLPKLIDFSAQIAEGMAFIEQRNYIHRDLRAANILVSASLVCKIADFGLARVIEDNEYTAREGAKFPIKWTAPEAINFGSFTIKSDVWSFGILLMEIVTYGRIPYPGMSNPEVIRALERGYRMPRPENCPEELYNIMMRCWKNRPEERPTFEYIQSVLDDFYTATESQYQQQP

c-Src = assay: as above
Fer (mouse) = assay: as above
FGFR3 = FGFR3 (UniProt P22607); assay: as above
FGFR1 = FGFR1 (UniProt P11362); assay: as above
Sequence of FGFR1 (P11362 whole entry, looked up): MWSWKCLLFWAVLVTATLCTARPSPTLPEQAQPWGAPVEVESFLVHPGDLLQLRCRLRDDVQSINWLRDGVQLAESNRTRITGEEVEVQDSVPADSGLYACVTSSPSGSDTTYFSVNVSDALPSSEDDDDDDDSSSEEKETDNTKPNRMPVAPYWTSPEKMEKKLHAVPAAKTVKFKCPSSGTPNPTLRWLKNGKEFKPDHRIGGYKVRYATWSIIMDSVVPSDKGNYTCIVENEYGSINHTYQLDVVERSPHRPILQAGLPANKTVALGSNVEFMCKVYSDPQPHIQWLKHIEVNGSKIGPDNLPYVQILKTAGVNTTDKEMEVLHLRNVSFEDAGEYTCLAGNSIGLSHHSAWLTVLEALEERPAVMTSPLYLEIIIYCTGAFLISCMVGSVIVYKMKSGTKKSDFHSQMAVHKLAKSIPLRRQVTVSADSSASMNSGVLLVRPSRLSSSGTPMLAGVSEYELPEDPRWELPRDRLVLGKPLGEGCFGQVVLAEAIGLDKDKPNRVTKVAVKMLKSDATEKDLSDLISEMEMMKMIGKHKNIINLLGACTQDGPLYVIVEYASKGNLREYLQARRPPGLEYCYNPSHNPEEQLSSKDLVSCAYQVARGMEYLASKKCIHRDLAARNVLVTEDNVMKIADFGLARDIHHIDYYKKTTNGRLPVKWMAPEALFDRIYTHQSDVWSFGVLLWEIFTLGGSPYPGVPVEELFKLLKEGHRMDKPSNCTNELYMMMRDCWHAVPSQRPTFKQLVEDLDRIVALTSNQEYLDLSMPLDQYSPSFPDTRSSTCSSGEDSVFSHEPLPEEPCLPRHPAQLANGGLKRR

Jak2 = Jak2 (UniProt O60674); assay: as above
Sequence of Jak2 (O60674 whole entry, looked up): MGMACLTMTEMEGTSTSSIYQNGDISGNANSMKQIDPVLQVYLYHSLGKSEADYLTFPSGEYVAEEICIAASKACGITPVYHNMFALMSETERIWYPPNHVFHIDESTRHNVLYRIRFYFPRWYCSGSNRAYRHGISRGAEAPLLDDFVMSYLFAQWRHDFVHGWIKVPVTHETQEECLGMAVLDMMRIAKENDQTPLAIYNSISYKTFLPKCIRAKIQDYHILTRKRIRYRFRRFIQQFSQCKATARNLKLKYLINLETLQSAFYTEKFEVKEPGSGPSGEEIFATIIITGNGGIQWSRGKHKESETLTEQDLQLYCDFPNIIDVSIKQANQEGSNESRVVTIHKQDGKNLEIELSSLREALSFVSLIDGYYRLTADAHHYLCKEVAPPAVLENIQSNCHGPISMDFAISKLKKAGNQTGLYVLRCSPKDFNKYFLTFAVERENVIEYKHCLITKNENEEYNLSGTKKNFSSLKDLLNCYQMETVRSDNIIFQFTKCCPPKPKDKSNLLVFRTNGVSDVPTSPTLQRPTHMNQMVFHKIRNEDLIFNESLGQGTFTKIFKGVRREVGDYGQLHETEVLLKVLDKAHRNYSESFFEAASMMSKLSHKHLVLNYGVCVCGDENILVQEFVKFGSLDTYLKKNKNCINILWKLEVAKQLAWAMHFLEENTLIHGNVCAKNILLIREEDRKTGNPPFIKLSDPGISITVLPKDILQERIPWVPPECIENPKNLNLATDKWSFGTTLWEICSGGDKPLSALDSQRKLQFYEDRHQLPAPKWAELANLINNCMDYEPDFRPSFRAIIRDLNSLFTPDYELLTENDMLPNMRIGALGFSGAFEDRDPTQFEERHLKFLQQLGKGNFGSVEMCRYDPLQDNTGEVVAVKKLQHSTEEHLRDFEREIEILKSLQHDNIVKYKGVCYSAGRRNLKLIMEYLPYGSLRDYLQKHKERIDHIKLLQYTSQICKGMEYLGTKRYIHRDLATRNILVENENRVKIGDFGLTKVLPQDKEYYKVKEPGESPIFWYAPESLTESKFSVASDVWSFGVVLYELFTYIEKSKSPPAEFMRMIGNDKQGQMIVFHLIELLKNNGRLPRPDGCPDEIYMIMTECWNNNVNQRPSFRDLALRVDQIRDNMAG

EPHB1 = EPHB1 (UniProt P54762); assay: as above
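Throughout, for SH2 binding enrichment of the phosphorylated peptide, bacterial display: peptide library displayed on the E. coli surface as eCPX fusions, selected cells deep-sequenced, score is each peptide's frequency after selection divided by its frequency in the input.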
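Throughout, for phosphorylation enrichment, bacterial display: 11-residue human phosphosite peptides and single-mutation variants displayed on the E. coli surface, counted by deep sequencing, each peptide's frequency after selection divided by its frequency in the unselected input library; frequency after pTyr selection over input frequency; kinase dosed for 20-30% of maximal phosphorylation in three min.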

Sequence | SH2 binding enrichment (Grb2 SH2) | SH2 binding enrichment (SHP2-C SH2) | SH2 binding enrichment (c-Src SH2) | phosphorylation enrichment (MERTK) | phosphorylation enrichment (c-Abl (mouse)) | phosphorylation enrichment (AncSZ) | phosphorylation enrichment (Fes) | phosphorylation enrichment (Fyn) | phosphorylation enrichment (EPHB2) | phosphorylation enrichment (Hck) | phosphorylation enrichment (c-Src) | phosphorylation enrichment (Fer (mouse)) | phosphorylation enrichment (FGFR3) | phosphorylation enrichment (FGFR1) | phosphorylation enrichment (Jak2) | phosphorylation enrichment (EPHB1)
RQQQDYWLIDV [ANPEP_Y600] | 1.07 | 0.913 | 0.586 | 4.02 | 1.32 | 3.3 | 1.6 | 0.847 | 4.64 | 0.625 | 1.47 | 3.21 | 17.4 | 20.6 | 2.43 | 8.95
KDQPDYKFQPR [SOX9_Y172_H169Q_YF] | 1.2 | 0.829 | 0.675 | 0.46 | 0.457 | 0.666 | 0.678 | 0.382 | 0.402 | 0.386 | 0.434 | 0.381 | 0.529 | 0.422 | 0.491 | 0.348
IHFAIYLLKFS [ARMC9_Y107_YF] | 1.69 | 1.45 | 1.13 | 0.414 | 0.668 | 0.891 | 1.06 | 0.458 | 0.457 | 0.521 | 0.499 | 0.303 | 0.684 | 0.363 | 1.03 | 0.561
HTLQLYRCREE [ALPK3_Y342] | 0.672 | 0.658 | 0.406 | 0.607 | 0.329 | 0.953 | 1.03 | 0.573 | 0.588 | 0.522 | 0.603 | 0.575 | 0.7 | 0.898 | 0.574 | 0.499
LNARHYGGLTG [PGAM2_Y92_E89A] | 0.779 | 0.656 | 0.446 | 0.44 | 0.668 | 0.585 | 0.573 | 0.301 | 0.3 | 0.542 | 0.631 | 0.634 | 0.513 | 0.567 | 0.606 | 0.376
TYGVLYKARNK [CDK2_Y19_V18L] | 0.962 | 0.624 | 0.406 | 0.689 | 0.519 | 0.539 | 0.691 | 2.88 | 0.532 | 2.86 | 3.29 | 0.438 | 0.483 | 0.394 | 0.565 | 0.398
LRRREYQRQDY [PRKRIP1_Y90] | 0.76 | 0.727 | 0.435 | 0.541 | 0.554 | 0.841 | 0.64 | 0.706 | 0.786 | 0.621 | 0.565 | 0.504 | 0.683 | 0.532 | 0.289 | 0.706
SSSNPYSTVTM [ACTN2_Y599] | 0.766 | 7.62 | 3.42 | 0.521 | 0.768 | 0.62 | 0.751 | 0.976 | 0.389 | 0.995 | 1.9 | 10.9 | 0.486 | 0.543 | 0.599 | 0.461
HAVFVYDICHV [TWNK_Y508_YF] | 0.895 | 1.27 | 0.531 | 2.62 | 1.47 | 1.88 | 2.02 | 4.27 | 1.36 | 2.8 | 4.61 | 3.38 | 1.05 | 0.631 | 1.65 | 1.49
QLFGPYLRIHA [BSCL2_Y213_A212P_YF] | 1.33 | 1.54 | 1.17 | 0.485 | 0.628 | 1.25 | 1.56 | 0.588 | 0.548 | 0.515 | 0.785 | 0.427 | 1.03 | 0.733 | 1.35 | 1.13
GLQDEYDFKCK [STAT1_Y170_D165G] | 0.709 | 0.74 | 0.559 | 0.453 | 0.831 | 1.09 | 1.12 | 0.453 | 0.63 | 0.597 | 0.543 | 0.467 | 0.555 | 0.626 | 1.18 | 0.509
HIAKGYRRDNP [HARS1_Y156_V155G] | 0.456 | 0.43 | 0.213 | 0.399 | 0.543 | 0.731 | 0.539 | 0.427 | 0.429 | 0.572 | 0.451 | 0.438 | 0.326 | 0.33 | 0.409 | 0.363
ADRNHYRRFRR [YBX1_Y145_P149R_YF] | 0.669 | 0.659 | 0.428 | 0.672 | 0.507 | 0.564 | 0.561 | 0.57 | 0.447 | 0.544 | 0.548 | 0.435 | 0.721 | 0.509 | 0.579 | 0.462
EAEALYQTKFQ [KRT73_Y325] | 0.707 | 0.609 | 0.348 | 0.569 | 0.85 | 1.33 | 1.19 | 1.32 | 0.645 | 2.65 | 1.44 | 0.964 | 0.687 | 0.534 | 0.976 | 0.58
VISNAYVDLAP [HSD17B4_Y602] | 0.858 | 1.21 | 3.79 | 0.589 | 0.475 | 0.675 | 0.777 | 0.428 | 0.557 | 0.471 | 0.435 | 0.516 | 0.653 | 0.89 | 0.707 | 0.436
FADIAYNYRDG [PAH_Y166_H170D] | 1.12 | 0.575 | 0.639 | 0.363 | 0.545 | 0.942 | 0.836 | 0.371 | 0.501 | 0.352 | 0.418 | 0.376 | 0.622 | 0.397 | 1.04 | 0.404
KVGRVYLFLQP [ITGA2B_Y360_E355K] | 0.843 | 0.724 | 0.48 | 0.391 | 0.75 | 1.02 | 1.2 | 0.375 | 0.522 | 0.462 | 0.362 | 0.492 | 0.768 | 0.404 | 0.983 | 0.558
